Data from the supplement of paper PMC9170038.

System: MS2 coat protein
Assay: apparent KD of MS2 coat protein; higher = weaker reporter binding
Details: Eterna round: R107
Summary of the method: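 Binding of SNAP-549-labelled MS2 coat protein was measured on designed RNA switches transcribed on-chip from Illumina sequencing clusters. The protein rose in twofold steps from 0.7 or 1.5 nM to 3 µM, with 0.8–1.5 h per step early on and 10–20 min per step later, in 100 mM Tris-HCl pH 7.5, 80 mM KCl, 4 mM MgCl2, without or with constant ligand. Each design's apparent KD is the median of fits to its normalised cluster binding curves.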

[1] = input ligand: theophylline 20 uM
[2] = input ligand: theophylline 2 mM
[3] = input ligand: tryptophan 2.4 mM

| Sequence | apparent KD of MS2 coat protein (input ligand: arginine 13.2 mM) | apparent KD of MS2 coat protein (input ligand: none) | apparent KD of MS2 coat protein [1] | apparent KD of MS2 coat protein [2] | apparent KD of MS2 coat protein [3] |
| --- | --- | --- | --- | --- | --- |
| AGAGCAUUGACGGCCGCCACUCAUGUCACAUGAGGAUCACCCAUGUGAUGGGUAAUUGCCCGGUUGAGGACCGGGUCAAUGCUCA [Omei Tryp SS B v4] | 5.88 nM | 8.32 nM | 11.3 nM | 10.1 nM | 9.74 nM |
| UACAUGAGGAUCACCCAUGUCCCAUGUGAACGAGGACCGGUACGGCCGCCACUCGAAUAAGGCGGCACAUGAGGAUCACCCACAU [AstrosSSTry#2] | 283 nM |  | 352 nM | 399 nM |  |
| GGGUAUGAUCCGGAUACCAGCGAACAUGAGGAUCACCCAUGUGACCUAAGAUAGGCUAAACGCCCUUGGCAGCCGAGAUUGCGUU [Same State Theophylline B GF7] | 32.4 nM |  | 49.7 nM |  | 41 nM |
| ACGUCGCAUAGGAAAACUAUGUGACGAAAUCGAGGACCGGUACGGCCGCCACUCGUCCUCAACAUGAGGAUCACCCAUGUAAUAA [Mat - Exclusion - Trytophan A - D7] | 19.3 nM |  | 23.3 nM | 22.3 nM |  |
| UUGCCCAGUACGGCCGCCACUGUGUGCAGGGAACCCAGGUCCACAUGAGGAUCACCCAUGUACAGCAGGACCGGGUACUUGCAAU [Ininladia] | 8.14 nM |  | 11.9 nM | 10.6 nM |  |
| GGUUACUCUACGGCCGCCACUGAACAUGAGGAUCACCCAUGUAAUGUUCAGUAGUCUUUAGACAACAGGACCGGGUAGUGUAACC [Tryptophan B 6] | 109 nM |  | 236 nM | 271 nM |  |
| CGCUACAUGAGGAUCACCCAUGUUACUCCGCGAGGACCGGUACGGCCGCCACUCGGCAGUUUGCGCCGCCGGAGGCACUCUUCAG [theeternabot_sameState_MS2_Trp_A_32] | 20.9 nM |  | 43.6 nM | 33.7 nM |  |
| AGCUUGUAGUCGGCCGCCACUAAUAGGGAUCCUAUCGAGGCGGGUAACAUGAGGAUCACCCAUGUUAGGACCGGGACAGCGAGGA [Cetian] | 10 nM | 16.6 nM | 15.4 nM | 11.6 nM | 10.8 nM |
| UCUCACAUGAGGAUCACCCAUGUGUGCGGUCGAGGACCGGUACGGCCGCCACUCGAAUCCUUCCGCGAGAAGAUUGUACGACGGC [theeternabot_sameState_MS2_Trp_A_38] | 28.3 nM |  | 74.4 nM | 99.9 nM |  |
| GCUAGGUCAUCGGCCGCCACUAACGACGGUUCCAACAUGAGGAUCACCCAUGUGCCACAUGCGCAUAGGACCGGGAUGACCUAGC [SSTB NP+V+V2 #5] | 31.1 nM |  | 51.2 nM | 42.7 nM |  |
| ACCUGUACGAAAAGUGCAGGACACGGAAUACGAGGACCGGUACGGCCGCCACUCGGAAUAAACCUGAGGAUCACCCUGGUCCGUG [TrypAS 9 #AlternativeMS2 #Zipper #StaticStem] | 26.8 nM | 25.1 nM | 39.1 nM | 34.4 nM | 32.2 nM |
| UCACAUGAGGAUCACCCAUGUAUAGUUGAAGGAGCGAUCAGGAGGUCAGGUAGGUCGCAGCACAUGAGGAUCACCCAUGUAUCGA [DOUBLE!!! :-D #4] | 34 nM | 85.2 nM | 72.7 nM | 50.4 nM | 59.5 nM |
| UUUGCACAUGAGGAUCACCCAUGUACAGAUACCAGCCUCAUCUACGGCCCUUGGCAGCUGAGACAAUGGUGACGUGACGGGCUUU [Erqugere] | 13 nM |  | 14.4 nM |  | 13.2 nM |
| UUGUUGUUUGGAAGGAGCGUGGAUGAGUUAGAACAUGAGGAUCACCCAUGUUGGAUGAUACCGCAGGUAGGUCGCCGGGUGGUGG [11.aA] | 141 nM | 50.7 nM | 76.4 nM | 40 nM | 51.5 nM |
| UUCUGGUCCCGUGAUACCAGAGACAUGAGGAUCACCCAUGUACAUGAGGAUCACCCAUGUUUCCCUUGGCAGCACUGUAGGGAGC [Exclusion Theophylline B GF 16] | 79.9 nM |  | 226 nM |  | 207 nM |
| AGCGCAUCCGUAUAGGAUGCGCUCCAUGAAGGAGCGCGGGAAACCGCAGGUAGGUCGCGUGACAUGAGGAUCACCCAUGUGUAUU [#17 Same State - Arginine A] | 16.9 nM | 20 nM | 27.7 nM | 22.8 nM | 20.9 nM |
| CUGUACAUCUCGGCCGCCACUGACAUGAGGAUCACCCAUGUAGUACCUGAGAUAGACAUAUCUUACAGGACCGGGAGGUGUGCAG [SSTryp B #31] | 12.2 nM | 10.2 nM | 13.5 nM | 9.35 nM | 10.6 nM |
| AAAUAAAUACAUGAGGAUCACCCAUGUGAAGGAGCGCCCGUUAGGGCAGGUAGGUCGCGCAUGAAUAACUCCGUGCAAAAGCACA [ArgEX 19 #OpenEnded] | 57.8 nM | 15.6 nM | 37.3 nM | 26.4 nM | 19.6 nM |
